Experimental data from publication PMC4750992, “A New Mutation, hap1-2, Reveals a C Terminal Domain Function in AtMago Protein and Its Biological Effects in Male Gametophyte Development in Arabidopsis thaliana” (PLoS ONE, 2016).

Target: T1, His-AteIF4AIII (Arabidopsis thaliana, UniProt Q94A52 1-408)
T1 construct: AteIF4AIII, Arabidopsis thaliana; cDNA amplified from qrt cDNAs with primers AteIF4AIIIFNdeI and AteIF4AIIIRSalI; Vector pET16b; also called His-eIF4AIII; source: E. coli BL21 (DE3) (pET16b), purified and eluted with ProBond beads
T1 sequence (Q94A52 whole entry): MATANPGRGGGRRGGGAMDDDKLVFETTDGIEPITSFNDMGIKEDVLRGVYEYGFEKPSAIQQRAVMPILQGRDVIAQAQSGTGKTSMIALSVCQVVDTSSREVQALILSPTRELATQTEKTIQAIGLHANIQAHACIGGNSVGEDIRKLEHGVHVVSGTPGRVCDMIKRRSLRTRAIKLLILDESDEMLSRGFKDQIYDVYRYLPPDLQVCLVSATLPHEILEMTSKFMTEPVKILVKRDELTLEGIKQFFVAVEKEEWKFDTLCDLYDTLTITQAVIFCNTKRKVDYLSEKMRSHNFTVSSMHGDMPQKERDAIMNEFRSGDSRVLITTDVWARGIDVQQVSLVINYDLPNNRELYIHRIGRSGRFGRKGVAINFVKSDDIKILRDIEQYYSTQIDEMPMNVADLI
Test: pull-down; MBP, MBP-AtMago or MBP-AtMagoΔC kept on amylose beads; purified His-Y14 or His-eIF4AIII diluted in Column Buffer (200 mM NaCl, 1 mM EDTA, 20 mM Tris-HCl, pH 7.4), 300 μL, on ice 1 hour; three washes; Western blot with anti-His or anti-MBP
Conditions: both partners purified

B1: MBP-AtMago (natural protein, Arabidopsis thaliana, UniProt O23676 1-150, looked up)
chain: MAAEEATEFYLRYYVGHKGKFGHEFLEFEFREDGKLRYANNSNYKNDTIIRKEVFLTPAVLKECKRIVSESEILKEDDNNWPEPDRVGKQELEIVLGNEHISFATSKIGSLVDCQSSNDPEGLRIFYYLVQDLKCLVFSLISLHFKIKPI
notes: AtMago (HAP1), Arabidopsis thaliana, full length protein of 150 amino acids; cDNA amplified from qrt;HAP1/hap1-2 cDNAs; Cloned BamHI/HindIII into pMAL-c2; also called HAP1; HAPLESS1
**Q.** Does B1 bind?
**A.** binds
